Percent fibrin binding and fold fibrin binding against full-length t-PA data for 2 substances are collected here from US20150259666A1.

Test [1] addresses fibrin (clot prepared from fibrinogen with bovine thrombin). As to the kind of experiment: fibrin clot binding assay, 0.1 mg/ml fibrinogen; bound enzyme = total minus free in supernatant by ELISA.
Test [2] shares this target. As to the kind of experiment: fibrin clot binding assay, 0.3 mg/ml fibrinogen; bound enzyme = total minus free in supernatant by ELISA.
The target is the same in test [3]. As to the kind of experiment: fibrin clot binding assay; ratio of CT-b to full-length t-PA.

Turning to “chimeric truncated tissue plasminogen activator (CT t-PA) or CT-b (from UniProt P98119 37-82; P00750 82-214; P00750 297-562) (enzyme)”, the values for the percent fibrin binding in test [1] and in test [2] were 28% and 60%, respectively. For the same substance, the fold fibrin binding against full-length t-PA in test [3] worked out at 1.2 fold.

On to “full length t-PA (native human tissue plasminogen activator) (from UniProt P00750 36-562) (enzyme)”, for which the percent fibrin binding in test [1] amounted to 24%; in test [2] it was 51%.
